B1: Protein SHQ1 homolog (Homo sapiens), Q6PI26 (parent)
chain: MLTPAFDLSQDPDFLTIAIRVPYARVSEFDVYFEGSDFKFYAKPYFLRLTLPGRIVENGSEQGSYDADKGIFTIRLPKETPGQHFEGLNMLTALLAPRKSRTAKPLVEEIGASEIPEEVVDDEEFDWEIEQTPCEEVSESALNPQCHYGFGNLRSGVLQRLQDELSDVIDIKDPDFTPAAERRQKRLAAELAKFDPDHYLADFFEDEAIEQILKYNPWWTDKYSKMMAFLEKSQEQENHATLVSFSEEEKYQLRKFVNKSYLLDKRACRQVCYSLIDILLAYCYETRVTEGEKNVESAWNIRKLSPTLCWFETWTNVHDIMVSFGRRVLCYPLYRHFKLVMKAYRDTIKILQLGKSAVLKCLLDIHKIFQENDPAYILNDLYISDYCVWIQKVKSKKLAALAEALKEVSLTKAQLGLELEELEAAALLVQEEETALKAAHSVSGQQTLCSSSEASDSEDSDSSVSSGNEDSGSDSEQDELKDSPSETVSSLQGPFLEESSAFLIVDGGVRRNTAIQESDASQGKPLASSWPLGVSGPLIEELGEQLKTTVQVSEPKGTTAVNRSNIQERDGCQTPNN
partner: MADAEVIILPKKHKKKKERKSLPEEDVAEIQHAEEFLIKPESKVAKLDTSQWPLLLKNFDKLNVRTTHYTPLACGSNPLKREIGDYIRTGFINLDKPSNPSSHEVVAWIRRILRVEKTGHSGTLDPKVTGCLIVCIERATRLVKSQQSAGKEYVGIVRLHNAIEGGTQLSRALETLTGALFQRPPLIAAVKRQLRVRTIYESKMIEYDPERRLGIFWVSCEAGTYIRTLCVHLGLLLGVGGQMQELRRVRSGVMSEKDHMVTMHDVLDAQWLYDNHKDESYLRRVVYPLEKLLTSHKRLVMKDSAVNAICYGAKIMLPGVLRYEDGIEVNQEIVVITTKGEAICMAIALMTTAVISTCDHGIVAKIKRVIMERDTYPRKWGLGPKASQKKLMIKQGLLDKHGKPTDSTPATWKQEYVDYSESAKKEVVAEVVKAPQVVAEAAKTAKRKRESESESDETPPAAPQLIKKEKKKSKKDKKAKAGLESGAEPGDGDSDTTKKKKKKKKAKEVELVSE

Here are results for three variants from IntAct's records for PubMed 29178645.

Variants of B1 are the subject of this assay. Conditions: with dkc1_human DKC1, O60832.
In the case of MLTPAFDLSQDPDFLTIAIRVPYARVSEFDVYFEGSDFKFYAKPYFLRLTLPGRIVENGSEQGSYDADKGIFTIRLPKETPGQHFEGLNMLTALLAPRKSRTAKPLVEEIGASEIPEEVVDDEEFDWEIEQTPCEEVSESALNPQCHYGFGNLRSGVLQRLQDELSDVIDIKDPDFTPAAERRQKRLAAELAKFDPDHYLADFFEDEAIEQILKYNPWWTDKYSKMMAFLEKSQEQENHATLVSFSEEEKYQLRKFVNKSYLLDKRACRQVCYSLIDILLAYCYETRVTEGEKNVESAWNIRKLSPTLCWFETWTNVHDIMVSFGRRVLCYPLYCHFKLVMKAYRDTIKILQLGKSAVLKCLLDIHKIFQENDPAYILNDLYISDYCVWIQKVKSKKLAALAEALKEVSLTKAQLGLELEELEAAALLVQEEETALKAAHSVSGQQTLCSSSEASDSEDSDSSVSSGNEDSGSDSEQDELKDSPSETVSSLQGPFLEESSAFLIVDGGVRRNTAIQESDASQGKPLASSWPLGVSGPLIEELGEQLKTTVQVSEPKGTTAVNRSNIQERDGCQTPNN [R335C], the “effect of a mutation on the interaction” value is “decreasing interaction strength”. The result for MLTPAFDLSQDPDFLTIAIRVPYARVSEFDVYFEGSDFKFYAKPYFLRLTLPGRIVENGSEQGSYDADKGIFTIRLPKETPGQHFEGLNMLTALLAPRKSRTAKPLVEEIGASEIPEEVVDDEEFDWEIEQTPCEEVSESALNPQCHYGFGNLRSGVLQRLQDELSDVIDIKDPDFTPAAERRQKRLAAELAKFDPDHYLADFFEDEAIEQILKYNPWWTDKYSKMMAFLEKSQEQENHATLVSFSEEEKYQLRKFVNKSYLLDKRACRQVCYSLIDILLAYCYETRVTEGEKNVESAWNIRKLSPTLCWFETWTNVHDIMVSFGRRVLCYPLYCHFKLVMKAYRDTIKILQLGKSAVLKCLLDIHKIFQENDPAYILNDLYISDYCVWIQKVKSKKLAALAEALKEVSLTKAQLGLELEELEAAVLLVQEEETALKAAHSVSGQQTLCSSSEASDSEDSDSSVSSGNEDSGSDSEQDELKDSPSETVSSLQGPFLEESSAFLIVDGGVRRNTAIQESDASQGKPLASSWPLGVSGPLIEELGEQLKTTVQVSEPKGTTAVNRSNIQERDGCQTPNN [R335C;A426V] reads “decreasing interaction strength”; that for MLTPAFDLSQDPDFLTIAIRVPYARVSEFDVYFEGSDFKFYAKPYFLRLTLPGRIVENGSEQGSYDADKGIFTIRLPKETPGQHFEGLNMLTALLAPRKSRTAKPLVEEIGASEIPEEVVDDEEFDWEIEQTPCEEVSESALNPQCHYGFGNLRSGVLQRLQDELSDVIDIKDPDFTPAAERRQKRLAAELAKFDPDHYLADFFEDEAIEQILKYNPWWTDKYSKMMAFLEKSQEQENHATLVSFSEEEKYQLRKFVNKSYLLDKRACRQVCYSLIDILLAYCYETRVTEGEKNVESAWNIRKLSPTLCWFETWTNVHDIMVSFGRRVLCYPLYRHFKLVMKAYRDTIKILQLGKSAVLKCLLDIHKIFQENDPAYILNDLYISDYCVWIQKVKSKKLAALAEALKEVSLTKAQLGLELEELEAAVLLVQEEETALKAAHSVSGQQTLCSSSEASDSEDSDSSVSSGNEDSGSDSEQDELKDSPSETVSSLQGPFLEESSAFLIVDGGVRRNTAIQESDASQGKPLASSWPLGVSGPLIEELGEQLKTTVQVSEPKGTTAVNRSNIQERDGCQTPNN [A426V], “decreasing interaction strength”.
